Experimental data as given in US20220267469A1 (LIPUM, published 2022).

T1: Biotinylated human BSSL (human, UniProt P19835 21-753, Biotinylated on glycosacarides, 30-40 biotin/BSSL)
T1 construct: hBSSL biotinylated in house; also called b-hBSSL; human BSSL-biotin
T1 sequence: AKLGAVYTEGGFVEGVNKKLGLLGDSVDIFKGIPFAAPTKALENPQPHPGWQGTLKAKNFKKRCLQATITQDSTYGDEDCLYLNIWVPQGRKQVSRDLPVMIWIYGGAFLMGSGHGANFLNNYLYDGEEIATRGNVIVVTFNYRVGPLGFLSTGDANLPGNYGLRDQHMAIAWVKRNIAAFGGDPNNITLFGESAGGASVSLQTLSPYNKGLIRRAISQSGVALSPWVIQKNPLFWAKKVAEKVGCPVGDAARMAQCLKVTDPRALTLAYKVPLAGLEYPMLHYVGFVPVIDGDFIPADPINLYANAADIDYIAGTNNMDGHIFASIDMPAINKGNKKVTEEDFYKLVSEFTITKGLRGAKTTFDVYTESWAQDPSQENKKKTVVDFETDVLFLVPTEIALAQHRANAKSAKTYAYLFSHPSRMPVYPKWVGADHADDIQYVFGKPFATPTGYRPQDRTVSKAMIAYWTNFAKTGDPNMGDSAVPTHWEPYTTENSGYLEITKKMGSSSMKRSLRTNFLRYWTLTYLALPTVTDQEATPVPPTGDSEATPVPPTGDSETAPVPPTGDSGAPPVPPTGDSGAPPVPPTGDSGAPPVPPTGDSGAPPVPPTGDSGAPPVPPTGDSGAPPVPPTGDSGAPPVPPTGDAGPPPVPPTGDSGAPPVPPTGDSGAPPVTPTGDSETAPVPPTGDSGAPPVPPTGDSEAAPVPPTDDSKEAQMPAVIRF

T2: Mouse BSSL, recombinant (mouse, UniProt Q64285 21-599)
T2 construct: Bought (R&D Systems, Cat. no 5658-CE); also called mBSSL; murine BSSL
T2 sequence: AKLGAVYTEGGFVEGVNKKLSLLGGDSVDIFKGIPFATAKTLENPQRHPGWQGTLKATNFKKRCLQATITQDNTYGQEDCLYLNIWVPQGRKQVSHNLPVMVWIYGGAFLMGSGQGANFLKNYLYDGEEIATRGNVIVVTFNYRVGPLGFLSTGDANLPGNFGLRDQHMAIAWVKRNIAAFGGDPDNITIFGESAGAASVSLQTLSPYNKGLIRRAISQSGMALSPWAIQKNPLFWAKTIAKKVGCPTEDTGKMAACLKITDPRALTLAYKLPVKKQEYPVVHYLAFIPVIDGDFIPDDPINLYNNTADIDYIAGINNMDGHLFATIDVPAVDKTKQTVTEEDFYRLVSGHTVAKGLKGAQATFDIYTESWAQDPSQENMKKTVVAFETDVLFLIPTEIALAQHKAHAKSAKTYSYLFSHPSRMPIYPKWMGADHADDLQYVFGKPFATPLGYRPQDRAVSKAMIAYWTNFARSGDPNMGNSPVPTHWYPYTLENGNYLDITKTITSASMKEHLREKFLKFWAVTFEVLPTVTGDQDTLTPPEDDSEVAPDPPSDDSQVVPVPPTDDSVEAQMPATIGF

T3: Human BSSL (bile salt-stimulated lipase), native (human, UniProt P19835 21-753)
T3 construct: Native full-length protein purified from human milk (Astra Hässle AB); also called hBSSL; non-biotinylated human BSSL
T3 sequence: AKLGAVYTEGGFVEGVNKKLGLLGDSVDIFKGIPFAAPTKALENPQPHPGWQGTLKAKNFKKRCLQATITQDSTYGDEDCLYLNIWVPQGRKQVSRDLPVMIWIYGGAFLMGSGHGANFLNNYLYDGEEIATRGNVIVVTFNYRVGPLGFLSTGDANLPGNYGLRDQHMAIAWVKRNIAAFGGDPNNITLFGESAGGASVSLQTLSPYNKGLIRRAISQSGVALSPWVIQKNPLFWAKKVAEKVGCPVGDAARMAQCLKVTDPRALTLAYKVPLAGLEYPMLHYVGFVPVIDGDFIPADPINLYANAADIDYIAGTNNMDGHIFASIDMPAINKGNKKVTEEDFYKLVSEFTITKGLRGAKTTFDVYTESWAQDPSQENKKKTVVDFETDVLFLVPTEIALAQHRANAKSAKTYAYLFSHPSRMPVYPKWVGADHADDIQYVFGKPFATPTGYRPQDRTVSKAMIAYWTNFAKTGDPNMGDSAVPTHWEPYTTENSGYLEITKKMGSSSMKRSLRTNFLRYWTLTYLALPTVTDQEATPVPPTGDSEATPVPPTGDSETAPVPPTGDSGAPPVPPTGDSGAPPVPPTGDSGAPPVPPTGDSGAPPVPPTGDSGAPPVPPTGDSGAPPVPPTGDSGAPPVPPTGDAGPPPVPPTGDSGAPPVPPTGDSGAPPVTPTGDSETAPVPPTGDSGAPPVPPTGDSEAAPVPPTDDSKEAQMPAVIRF


Experiments:
Biotinylated human BSSL [1] = target: T1, Biotinylated human BSSL; assay: flow cytometry displacement assay; 1.0 ug antibody, 1 ug b-hBSSL
Description: (§1) The 28 BSSL-specific hIgG4 antibodies and the five reference antibodies at different concentrations (ranging from 0.5 μg to 3.0 μg per reaction; see Table 10) were added to b-hBSSL (1 μg per reaction, see Table 2) in round-bottom polystyrene tubes, lx PBS (pH 7.4) was added to a final volume of 20 μl and the antibody/b-hBSSL mixtures were incubated for 30 min. at +4° C. to facilitate binding of antibodies to BSSL. Buffy coat (50 μl) was then added to each antibody/b-hBSSL mixture and incubation continued for another 30 min at +4° C. Thereafter, 2 ml of FACS lysing solution (BD Biosciences) was added and the cells were incubated for 10 min at room temperature in order to lyse erythrocytes and fix the white blood cells. The cells were then centrifuged for 5 min. at 200×g, the resulting pellets were washed by adding 2 ml of FACS buffer (1×PBS supplemented with 1% FCS and 0.1% NaN3) and centrifuged again. Finally, the supernatants were discarded and the cells were resuspended in the last drop of liquid, approximately 50 μl.
(§2) 5 μl of BV421-labelled anti-human CD14 (BD Biosciences) and 5 μl of BB515-labelled streptavidin (BD Biosciences) was added to each tube and incubated for 30 min, at +4° C., protected from light. Thereafter, cells were washed twice with FACS buffer, resuspended in 500 μl FACS buffer, and run on BD LSRII flow cytometer (BD Biosciences). Finally, data were analyzed using FlowJo software (BD Biosciences).

Mouse BSSL, recombinant = target: T2, Mouse BSSL, recombinant; assay: SPR steady state, hIgG4 S228P captured by anti-Fab
Description: (§3) Kinetic parameters of the hIgG4 S228P clones were determined by SPR using BIACORE® T200 (GE Healthcare). Single cycle kinetics was used to measure the affinity of the purified hIgG4 molecules to human and mouse BSSL. An anti-Fab antibody (GE Healthcare, #28958325) was immobilized on a CM5 S sensor chip by primary amine coupling using NHS-EDC chemistry. hIgG4 was captured by the anti-Fab antibody, and subsequently, five different concentrations of hBSSL (1:5 dilutions starting from 50 nM) or mBSSL (1:5 dilutions starting from 500 nM) were injected over the surface. The sensor chip surface was regenerated with 10 mM glycine-HCl pH 2.1. For binding to human BSSL, single cycle kinetic data was fitted to a 1:1 binding model and kinetic parameters were retrieved using software BlAevaluation. For mouse BSSL, a steady state analysis was performed by plotting the response level at equilibrium against each concentration, and KD values were retrieved by the BlAevalution software.

[2] = target: T3, Human BSSL (bile salt-stimulated …); assay: SPR single cycle kinetics, hIgG4 S228P captured by anti-Fab
Description: as §3

Biotinylated human BSSL [3] = target: T1, Biotinylated human BSSL; assay: flow cytometry displacement assay; 0.5 ug antibody, 1 ug b-hBSSL
Description: as §1, §2

Biotinylated human BSSL [4] = target: T1, Biotinylated human BSSL; assay: flow cytometry displacement assay; 1.5 ug antibody, 1 ug b-hBSSL
Description: as §1, §2

Biotinylated human BSSL [5] = target: T1, Biotinylated human BSSL; assay: flow cytometry displacement assay; 3.0 ug antibody, 1 ug b-hBSSL
Description: as §1, §2

Binder | percentage reduction of b-hBSSL binding to CD14+ monocytes (Biotinylated human BSSL [1]) [%] | Kd (Mouse BSSL, recombinant) [nM] | Kd [2] [nM] | percentage reduction of b-hBSSL binding to CD14+ monocytes (Biotinylated human BSSL [3]) [%] | percentage reduction of b-hBSSL binding to CD14+ monocytes (Biotinylated human BSSL [4]) [%] | percentage reduction of b-hBSSL binding to CD14+ monocytes (Biotinylated human BSSL [5]) [%]
S-SL048-14 hIgG4 S228P (antibody, V domains shown, Tested as human IgG4 S228P) VH: QVQLVQSGAEVKKPGASVKVSCKASGYTFTSYNMHWVRQAPGQGLEWMGVINPGDGATSYAQKFKGRVTMTRDTSTSTVYMELSSLRSEDTAVYYCARDYYGSSPLGYWGQGTLVTVSS VL: DIQMTQSPSSLSASVGDRVTITCRASPSISYLNWYQQKPGKAPKLLIYATSRLPSGVPSRFSGSGSGTDFTLTISSLQPEDFATYYCQQRSSSPTFGQGTKLEIK | 32 | 89 | 0.9 | 11 | 48 | 56
S-SL048-74 hIgG4 S228P (antibody, V domains shown, Tested as human IgG4 S228P) VH: QVQLVQSGAEVKKPGASVKVSCKASGYTFTSYNMHWVRQAPGQGLEWIGVINPGDGATSYAQKFQGRVTMTRDTSTSTVYMELSSLRSEDTAVYYCARDYYGSSPLGYWGQGTLVTVSS VL: DIQMTQSPSSLSASVGDRVTITCRASQSISYLNWYQQKPGKAPKLLIYAASSLASGVPSRFSGSGSGTDFTLTISSLQPEDFATYYCHQRSSSPTFGQGTKLEIK | – | 21 | 4.8 | – | 29 | 52
S-SL048-131 hIgG4 S228P (antibody, V domains shown, Tested as human IgG4 S228P) VH: QVQLVQSGAEVKKPGASVKVSCKASGYTFTSYNMHWVRQAPGQGLEWIGVINPGDGATSYAQKFKGRVTMTRDTSTSTVYMELSSLRSEDTAVYYCARDYYGSSPLGYWGQGTLVTVSS VL: DIQMTQSPSSLSASVGDRVTITCRASPSISYLNWYQQKPGKAPKLLIYAASKLASGVPSRFSGSGSGTDFTLTISSLQPEDFATYYCHQRSSSPTFGQGTKLEIK | – | 63 | 2.7 | – | 31 | 58
S-SL048-109 hIgG4 S228P (antibody, V domains shown, Tested as human IgG4 S228P) VH: QVQLVQSGAEVKKPGASVKVSCKASGYTFTSYNMHWVRQAPGQGLEWMGVINPSDGATSYAQKFKGRVTMTRDTSTSTVYMELSSLRSEDTAVYYCARDYYGSSPLGYWGQGTLVTVSS VL: DIQMTQSPSSLSASVGDRVTITCRASPSISYLNWYQQKPGKAPKLLIYATSRLASGVPSRFSGSGSGTDFTLTISSLQPEDFATYYCQQRSSSPTFGQGTKLEIK | – | 353 | 1.4 | – | 38 | 51

The remaining binders from weak to strong by Kd (Mouse BSSL, recombinant), led by results:

percentage reduction of b-hBSSL binding to CD14+ monocytes (Biotinylated human BSSL [1]) [%] | Kd (Mouse BSSL, recombinant) [nM] | Kd [2] [nM] | percentage reduction of b-hBSSL binding to CD14+ monocytes (Biotinylated human BSSL [3]) [%] | percentage reduction of b-hBSSL binding to CD14+ monocytes (Biotinylated human BSSL [4]) [%] | percentage reduction of b-hBSSL binding to CD14+ monocytes (Biotinylated human BSSL [5]) [%] | Binder
-1 | 199 | 1.7 | 12 | 26 | 69 | S-SL048-103 hIgG4 S228P (antibody, V domains shown, Tested as human IgG4 S228P) VH: QVQLVQSGAEVKKPGASVKVSCKASGYTFTSYNMHWVRQAPGQGLEWMGVINPGDGATSYAQKFKGRVTMTRDTSTSTVYMELSSLRSEDTAVYYCARDYYGSSPLGYWGQGTLVTVSS VL: DIQMTQSPSSLSASVGDRVTITCRASSSISYMHWYQQKPGKAPKLLIYATSSLASGVPSRFSGSGSGTDFTLTISSLQPEDFATYYCHQRSSSPTFGQGTKLEIK
– | 123 | 2.1 | – | 9 | 33 | S-SL048-125 hIgG4 S228P (antibody, V domains shown, Tested as human IgG4 S228P) VH: QVQLVQSGAEVKKPGASVKVSCKASGYTFTSYNMHWVRQAPGQGLEWIGVINPGDGATSYAQKFQGRVTMTRDTSTSTVYMELSSLRSEDTAVYYCARDYYGSSPLGYWGQGTLVTVSS VL: DIQMTQSPSSLSASVGDRVTITCRASSSISYLHWYQQKPGKAPKLLIYAASRLPSGVPSRFSGSGSGTDFTLTISSLQPEDFATYYCHQRSSYPTFGQGTKLEIK
28 | 87 | 1 | 20 | 44 | 53 | S-SL048-40 hIgG4 S228P (antibody, V domains shown, Tested as human IgG4 S228P) VH: QVQLVQSGAEVKKPGASVKVSCKASGYTFTSYNMHWVRQAPGQGLEWIGVINPSDGATSYAQKFQGRVTMTRDTSTSTVYMELSSLRSEDTAVYYCARDYYGSSPLGYWGQGTLVTVSS VL: DIQMTQSPSSLSASVGDRVTITCRASSSISYLNWYQQKPGKAPKLLIYAASRLPSGVPSRFSGSGSGTDFTLTISSLQPEDFATYYCQQRSSSPTFGQGTKLEIK
44 | 67 | 1 | 6 | 52 | 51 | S-SL048-38 hIgG4 S228P (antibody, V domains shown, Tested as human IgG4 S228P) VH: QVQLVQSGAEVKKPGASVKVSCKASGYTFTSYNMHWVRQAPGQGLEWMGVINPGDGATSYAQKFQGRVTMTRDTSTSTVYMELSSLRSEDTAVYYCARDYYGSSPLGYWGQGTLVTVSS VL: DIQMTQSPSSLSASVGDRVTITCRASPSISYLNWYQQKPGKAPKLLIYATSSLASGVPSRFSGSGSGTDFTLTISSLQPEDFATYYCQQRSSSPTFGQGTKLEIK
